Assay results from patent publication US10844127 (MERUS N V, dated 2020).
Numbering of substitutions follows the chain as printed. Where two headings read alike, the source gives them in different places. Blank lines part the entries; values can stand above or below the binder they belong to.

Assays:
[1] = molecular target: T1, human EGFR ECD-Fc fusion protein (R&D Systems) (human, UniProt P00533 25-645); test: phage ELISA, Fab on phage, immobilized EGFR, no IgG
T1 construct: extracellular domain; also called rhEGFR-Fc; EGFR-Fc; not shown: Fc part of the bought fusion protein, not described

[2] = molecular target: T1, human EGFR ECD-Fc fusion protein (R&D …); test: phage ELISA, Fab on phage, immobilized EGFR, with competitor MatuzuMab (Domain III)
human EGFR, full length [3] = molecular target: T2, human EGFR, full length (human, UniProt P00533 25-1210); test: cell-based or functional assay
[4] = molecular target: T3, chimeric cynomolgus-human EGFR (cynomolgus ECD, human trans-membrane …, UniProt P55245 25-1210 (rhesus entry)); test: FACS, CHO cells transfected with chimeric cynomolgus/human EGFR, IgG at 5 µg/ml
T3 construct: also called cynomolgus EGFR; chimeric cyno-human receptor

[5] = molecular target: T1, human EGFR ECD-Fc fusion protein (R&D …); test: phage ELISA, Fab on phage, immobilized EGFR, with competitor EGFR.1 (Domain II)
[6] = molecular target: T1, human EGFR ECD-Fc fusion protein (R&D …); test: phage ELISA, Fab on phage, immobilized EGFR, with competitor Cetuximab (Domain III)
[7] = molecular target: T1, human EGFR ECD-Fc fusion protein (R&D …); test: phage ELISA, Fab on phage, immobilized EGFR, with competitor ICR10 (Domain I)
CHO-delta IV = molecular target: T4, CHO-delta IV; test: FACS on CHO cells expressing the domain IV swap mutant (CHO-delta IV)
T4 construct: also called EGFR HER3 swap varIV ECD; domain IV swap mutant

CHO-delta II = molecular target: T5, CHO-delta II; test: FACS on CHO cells expressing the domain II swap mutant (CHO-delta II)
T5 construct: also called EGFR HER3 swap varII ECD; domain II swap mutant

[8] = molecular target: T3, chimeric cynomolgus-human EGFR; test: FACS, CHO cells transfected with chimeric cynomolgus/human EGFR, IgG at 5 µg/ml; remark: listed apart in the source
CHO-delta III = molecular target: T6, CHO-delta III; test: FACS on CHO cells expressing the domain III swap mutant (CHO-delta III)
T6 construct: also called EGFR HER3 swap varIII ECD; domain III swap mutant
T6 chain: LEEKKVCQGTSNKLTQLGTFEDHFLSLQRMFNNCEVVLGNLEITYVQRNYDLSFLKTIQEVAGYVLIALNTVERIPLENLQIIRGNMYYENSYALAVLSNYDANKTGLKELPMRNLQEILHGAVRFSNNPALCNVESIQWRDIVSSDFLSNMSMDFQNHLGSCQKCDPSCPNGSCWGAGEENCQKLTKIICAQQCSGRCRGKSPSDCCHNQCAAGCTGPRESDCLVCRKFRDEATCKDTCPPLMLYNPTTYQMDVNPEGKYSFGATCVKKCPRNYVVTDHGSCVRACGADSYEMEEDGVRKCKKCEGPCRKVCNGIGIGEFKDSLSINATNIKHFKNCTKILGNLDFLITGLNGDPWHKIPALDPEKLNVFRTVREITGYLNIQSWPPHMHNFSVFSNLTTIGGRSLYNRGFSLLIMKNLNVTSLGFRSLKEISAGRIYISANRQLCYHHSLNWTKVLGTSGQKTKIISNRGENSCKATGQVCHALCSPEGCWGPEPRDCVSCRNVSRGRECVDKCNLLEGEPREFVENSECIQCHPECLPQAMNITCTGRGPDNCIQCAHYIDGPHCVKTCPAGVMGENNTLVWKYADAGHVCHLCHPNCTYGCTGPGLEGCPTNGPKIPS

human EGFR, full length [9] = molecular target: T2, human EGFR, full length; test: FACS on CHO cells stably expressing wtEGFR (CHO-wtEGFR)
[10] = molecular target: T7, mouse EGFR ECD fused to human IgG1 Fc (Sino Biologicals cat. nr. 51091-M02H) (mouse; human, UniProt Q01279 25-647); test: ELISA on coated mouse EGFR ECD-human IgG1 Fc
T7 construct: extracellular domain; also called murine EGFR; not shown: human IgG1 Fc

CHO-vIII = molecular target: T8, CHO-vIII (human, UniProt P00533); test: FACS on CHO cells expressing EGFR variant III (CHO-vIII)
T8 construct: expressed on CHO cells; also called EGFR variant III

B1: PG3998 (antibody, IgG1, V domains shown)
VH: QVQLVQSGSELKKPGASVKVSCKASGYTFTNNAINWVRQAPGQGLEWMGWINTITGDPTYAQGFTGRFVFSLDTSVSTAYLQISSLKAEDTGVYYCAREEFLEWLFFDYWGQGTLVTVSS
VL: not shown
notes: Mono-specific bivalent full length IgG1 with the common light chain, from 293F cells; also called MF3998; MG3998
OD [1]: 2.49 | OD [2]: 0.671 | EGFR blocking activity compared to cetuximab (inhibition of EGF-induced cell death of A431 cells) (human EGFR, full length [3]): > 100% | binding result [4]: binds | OD [5]: 2.34 | OD [6]: 0.101 | OD [7]: 2.23

B3: PG4280 (antibody, IgG1, V domains shown)
VH: QVQLVQSGAEVKKPGASVKVSCKVSGYTLTELSMHWVRQAPGKGLEWMGGFDPEYGKTFFAQNFQGRVTMTEDTSADTAYMELSSLRSEDTAVYYCATEGYYETTTYYYNLFDSWGQGTLVTVSS
VL: not shown
notes: Mono-specific bivalent full length IgG1 with the common light chain; also called MF4280; MG4280
OD [1]: 2.55 | OD [2]: 0.613 | EGFR blocking activity compared to cetuximab (inhibition of EGF-induced cell death of A431 cells) (human EGFR, full length [3]): 100% | binding result [4]: binds | binding result [10]: no binding (tested: 5 µg/ml) | OD [5]: 2.13 | OD [6]: 1.14 | OD [7]: 2.3

B4: PG4289 (antibody, IgG1, V domains shown)
VH: QVQLVQSGSELKKPGASVKVSCKTSGYTFTDYAMTWVRQAPGQGLEWMGWITTNTGDPTYAPGFTGRFVFSLDTSVSTAYLQISSLKAEDTAVYYCARVYHWIRGFEFWGQGTLVTVSS
VL: not shown
notes: Mono-specific bivalent full length IgG1 with the common light chain; also called MF4289; MG4289
OD [1]: 2.28 | OD [2]: 2.36 | EGFR blocking activity compared to cetuximab (inhibition of EGF-induced cell death of A431 cells) (human EGFR, full length [3]): 80% | binding result [4]: binds | OD [5]: 2.23 | OD [6]: 2.22 | OD [7]: 2.05

Other lines, results leading:

binding result (CHO-delta IV): binds | binding result (CHO-delta II): binds | binding result [8]: binds | binding result (CHO-delta III): no binding | binding result (human EGFR, full length [9]): binds
B2: PG4010 (antibody, IgG1, V domains shown)
VH: B1 VH with I34M, T59S, S77N, G92A
VL: not shown
notes: Mono-specific bivalent full length IgG1 with the common light chain; also called MF4010; MG4010

binding result (CHO-vIII): no binding | binding result (CHO-delta IV): binds | binding result (CHO-delta II): binds | binding result [8]: binds | binding result (CHO-delta III): binds | binding result (human EGFR, full length [9]): binds
B5: PG4003 (antibody, IgG1, V domains shown)
VH: QVQLVQSGSELKKPGASVKVSCKASGYTFPSFAMNWLRQAPGQGLEWMGWITTNTGDPTYAQGFSGRFVFSLDTSVSTAYLQISSLKAEDTAVYYCARVYNWIRGFDYWGQGTLVTVSS
VL: not shown
notes: Mono-specific bivalent full length IgG1 with the common light chain; also called MF4003; MG4003
